According to the supplement of paper PMC5998384:

Assays:
HeLa Kyoto [1] = assay: melting temperature (median over replicates), in situ; higher = more thermally stable
HeLa Kyoto [2] = assay: thermal stability score vs G1/S (z-score of summed log2 fold changes over temperatures); higher = more thermally stable than in G1/S
HeLa Kyoto [3] = assay: solubility in G1/S (NP-40 vs SDS abundance) (log2 ratio); higher = more soluble; conditions: cell cycle stage: G1/S
HeLa Kyoto [4] = assay: solubility change mitosis vs G1/S (difference of NP-40 vs SDS log2 ratios) (log2 ratio difference); higher = more soluble in mitosis
[5] = cell cycle stage: early G1 (4.5 h after nocodazole release)
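Throughout, for melting temperature (median over replicates), in situ: HeLa Kyoto cells synchronized by double thymidine or nocodazole block, proteins quantified by TMT10plex mass spectrometry, three independent biological replicates.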
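Throughout, for solubility change mitosis vs G1/S (difference of NP-40 vs SDS log2 ratios): synchronized HeLa Kyoto cells (double thymidine block for G1/S, nocodazole release for mitosis), protein amounts in NP-40 versus SDS lysates quantified by mass spectrometry, three biological replicates.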
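Throughout, for solubility in G1/S (NP-40 vs SDS abundance): HeLa Kyoto cells arrested at G1/S by double thymidine block, proteins quantified by TMT10plex mass spectrometry in mild NP-40 versus SDS extracts, three biological replicates.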
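Throughout, for thermal stability score vs G1/S (z-score of summed log2 fold changes over temperatures): synchronized HeLa Kyoto cells, proteins quantified by TMT10plex mass spectrometry, three biological replicates, mitosis taken 0.5 h after nocodazole release, G1/S directly after double thymidine block.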

| Sequence | melting temperature (HeLa Kyoto [1]; cell cycle stage: G1/S) [°C] | melting temperature (HeLa Kyoto [1]; cell cycle stage: mitosis) [°C] | thermal stability score (HeLa Kyoto [2]; [5]) | thermal stability score (HeLa Kyoto [2]; cell cycle stage: mitosis) | solubility in G1/S (log2) (HeLa Kyoto [3]) | solubility change mitosis (log2) (HeLa Kyoto [4]) |
| --- | --- | --- | --- | --- | --- | --- |
| MADKTPGGSQKASSKTRSSDVHSSGSSDAHMDASGPSDSDMPSRTRPKSPRKHNYRNESARESLCDSPHQNLSRPLLENKLKAFSIGKMSTAKRTLSKKEQEELKKKEDEKAAAEIYEEFLAAFEGSDGNKVKTFVRGGVVNAAKEEHETDEKRGKIYKPSSRFADQKNPPNQSSNERPPSLLVIETKKPPLKKGEKEKKKSNLELFKEELKQIQEERDERHKTKGRLSRFEPPQSDSDGQRRSMDAPSRRNRSSGVLDDYAPGSHDVGDPSTTNLYLGNINPQMNEEMLCQEFGRFGPLASVKIMWPRTDEERARERNCGFVAFMNRRDAERALKNLNGKMIMSFEMKLGWGKAVPIPPHPIYIPPSMMEHTLPPPPSGLPFNAQPRERLKNPNAPMLPPPKNKEDFEKTLSQAIVKVVIPTERNLLALIHRMIEFVVREGPMFEAMIMNREINNPMFRFLFENQTPAHVYYRWKLYSILQGDSPTKWRTEDFRMFKNGSFWRPPPLNPYLHGMSEEQETEAFVEEPSKKGALKEEQRDKLEEILRGLTPRKNDIGDAMVFCLNNAEAAEEIVDCITESLSILKTPLPKKIARLYLVSDVLYNSSAKVANASYYRKFFETKLCQIFSDLNATYRTIQGHLQSENFKQRVMTCFRAWEDWAIYPEPFLIKLQNIFLGLVNIIEEKETEDVPDDLDGAPIEEELDGAPLEDVDGIPIDATPIDDLDGVPIKSLDDDLDGVPLDATEDSKKNEPIFKVAPSKWEAVDESELEAQAVTTSKWELFDQHEESEEEENQNQEEESEDEEDTQSSKSEEHHLYSNPIKEEMTESKFSKYSEMSEEKRAKLREIELKVMKFQDELESGKRPKKPGQSFQEQVEHYRDKLLQREKEKELERERERDKKDKEKLESRSKDKKEKDECTPTRKERKRRHSTSPSPSRSSSGRRVKSPSPKSERSERSERSHKESSRSRSSHKDSPRDVSKKAKRSPSGSRTPKRSRRSRSRSPKKSGKKSRSQSRSPHRSHKKSKKNKH [U2SURP] | 47.9 | 49.5 | 1.49 | 6.77 | -0.673 | 0.526 |
| MADNLPTEFDVVIIGTGLPESILAAACSRSGQRVLHIDSRSYYGGNWASFSFSGLLSWLKEYQQNNDIGEESTVVWQDLIHETEEAITLRKKDETIQHTEAFCYASQDMEDNVEEIGALQKNPSLGVSNTFTEVLDSALPEESQLSYFNSDEMPAKHTQKSDTEISLEVTDVEESVEKEKYCGDKTCMHTVSDKDGDKDESKSTVEDKADEPIRNRITYSQIVKEGRRFNIDLVSKLLYSQGLLIDLLIKSDVSRYVEFKNVTRILAFREGKVEQVPCSRADVFNSKELTMVEKRMLMKFLTFCLEYEQHPDEYQAFRQCSFSEYLKTKKLTPNLQHFVLHSIAMTSESSCTTIDGLNATKNFLQCLGRFGNTPFLFPLYGQGEIPQGFCRMCAVFGGIYCLRHKVQCFVVDKESGRCKAIIDHFGQRINAKYFIVEDSYLSEETCSNVQYKQISRAVLITDQSILKTDLDQQTSILIVPPAEPGACAVRVTELCSSTMTCMKDTYLVHLTCSSSKTAREDLESVVKKLFTPYTETEINEEELTKPRLLWALYFNMRDSSGISRSSYNGLPSNVYVCSGPDCGLGNEHAVKQAETLFQEIFPTEEFCPPPPNPEDIIFDGDDKQPEAPGTNNVVMAKLESSEESKNLESPEKHLQN [CHML] | 54 | 53.7 | -0.83 | -1.67 | -0.076 | -0.178 |
| MADPAAPTPAAPAPAQAPAPAPEAVPAPAAAPVPAPAPASDSASGPSSDSGPEAGSQRLLFSHDLVSGRYRGSVHFGLVRLIHGEDSDSEGEEEGRGSSGCSEAGGAGHEEGRASPLRRGYVRVQWYPEGVKQHVKETKLKLEDRSVVPRDVVRHMRSTDSQCGTVIDVNIDCAVKLIGTNCIIYPVNSKDLQHIWPFMYGDYIAYDCWLGKVYDLKNQIILKLSNGARCSMNTEDGAKLYDVCPHVSDSGLFFDDSYGFYPGQVLIGPAKIFSSVQWLSGVKPVLSTKSKFRVVVEEVQVVELKVTWITKSFCPGGTDSVSPPPSVITQENLGRVKRLGCFDHAQRQLGERCLYVFPAKVEPAKIAWECPEKNCAQGEGSMAKKVKRLLKKQVVRIMSCSPDTQCSRDHSMEDPDKKGESKTKSEAESASPEETPDGSASPVEMQDEGAEEPHEAGEQLPPFLLKEGRDDRLHSAEQDADDEAADDTDDTSSVTSSASSTTSSQSGSGTSRKKSIPLSIKNLKRKHKRKKNKITRDFKPGDRVAVEVVTTMTSADVMWQDGSVECNIRSNDLFPVHHLDNNEFCPGDFVVDKRVQSCPDPAVYGVVQSGDHIGRTCMVKWFKLRPSGDDVELIGEEEDVSVYDIADHPDFRFRTTDIVIRIGNTEDGAPHKEDEPSVGQVARVDVSSKVEVVWADNSKTIILPQHLYNIESEIEESDYDSVEGSTSGASSDEWEDDSDSWETDNGLVEDEHPKIEEPPIPPLEQPVAPEDKGVVISEEAATAAVQGAVAMAAPMAGLMEKAGKDGPPKSFRELKEAIKILESLKNMTVEQLLTGSPTSPTVEPEKPTREKKFLDDIKKLQENLKKTLDNVAIVEEEKMEAVPDVERKEDKPEGQSPVKAEWPSETPVLCQQCGGKPGVTFTSAKGEVFSVLEFAPSNHSFKKIEFQPPEAKKFFSTVRKEMALLATSLPEGIMVKTFEDRMDLFSALIKGPTRTPYEDGLYLFDIQLPNIYPAVPPHFCYLSQCSGRLNPNLYDNGKVCVSLLGTWIGKGTERWTSKSSLLQVLISIQGLILVNEPYYNEAGFDSDRGLQEGYENSRCYNEMALIRVVQSMTQLVRRPPEVFEQEIRQHFSTGGWRLVNRIESWLETHALLEKAQALPNGVPKASSSPEPPAVAELSDSGQQEPEDGGPAPGEASQGSDSEGGAQGLASASRDHTDQTSETAPDASVPPSVKPKKRRKSYRSFLPEKSGYPDIGFPLFPLSKGFIKSIRGVLTQFRAALLEAGMPECTEDK [UBE2O] | 51.7 | 51.1 | -1.41 | -1.46 | -0.0555 | -0.0785 |
| MADPEVCCFITKILCAHGGRMALDALLQEIALSEPQLCEVLQVAGPDRFVVLETGGEAGITRSVVATTRARVCRRKYCQRPCDNLHLCKLNLLGRCNYSQSERNLCKYSHEVLSEENFKVLKNHELSGLNKEELAVLLLQSDPFFMPEICKSYKGEGRQQICNQQPPCSRLHICDHFTRGNCRFPNCLRSHNLMDRKVLAIMREHGLNPDVVQNIQDICNSKHMQKNPPGPRAPSSHRRNMAYRARSKSRDRFFQGSQEFLASASASAERSCTPSPDQISHRASLEDAPVDDLTRKFTYLGSQDRARPPSGSSKATDLGGTSQAGTSQRFLENGSQEDLLHGNPGSTYLASNSTSAPNWKSLTSWTNDQGARRKTVFSPTLPAARSSLGSLQTPEAVTTRKGTGLLSSDYRIINGKSGTQDIQPGPLFNNNADGVATDITSTRSLNYKSTSSGHREISSPRIQDAGPASRDVQATGRIADDADPRVALVNDSLSDVTSTTSSRVDDHDSEEICLDHLCKGCPLNGSCSKVHFHLPYRWQMLIGKTWTDFEHMETIEKGYCNPGIHLCSVGSYTINFRVMSCDSFPIRRLSTPSSVTKPANSVFTTKWIWYWKNESGTWIQYGEEKDKRKNSNVDSSYLESLYQSCPRGVVPFQAGSRNYELSFQGMIQTNIASKTQKDVIRRPTFVPQWYVQQMKRGPDHQPAKTSSVSLTATFRPQEDFCFLSSKKYKLSEIHHLHPEYVRVSEHFKASMKNFKIEKIKKIENSELLDKFTWKKSQMKEEGKLLFYATSRAYVESICSNNFDSFLHETHENKYGKGIYFAKDAIYSHKNCPYDAKNVVMFVAQVLVGKFTEGNITYTSPPPQFDSCVDTRSNPSVFVIFQKDQVYPQYVIEYTEDKACVIS [ZC3HAV1] | 48.1 | 48.8 | 1.07 | 1.97 | -0.202 | 0.0381 |
| MADPRVRQIKIKTGVVKRLVKEKVMYEKEAKQQEEKIEKMRAEDGENYDIKKQAEILQESRMMIPDCQRRLEAAYLDLQRILENEKDLEEAEEYKEARLVLDSVKLEA [TBCA] | 55.4 | 53 | -7.45 | -6.72 | 0.241 | 0.298 |
| MADPWQECMDYAVTLARQAGEVVCEAIKNEMNVMLKSSPVDLVTATDQKVEKMLISSIKEKYPSHSFIGEESVAAGEKSILTDNPTWIIDPIDGTTNFVHRFPFVAVSIGFAVNKKIEFGVVYSCVEGKMYTARKGKGAFCNGQKLQVSQQEDITKSLLVTELGSSRTPETVRMVLSNMEKLFCIPVHGIRSVGTAAVNMCLVATGGADAYYEMGIHCWDVAGAGIIVTEAGGVLMDVTGGPFDLMSRRVIAANNRILAERIAKEIQVIPLQRDDED [IMPA1] | 59.9 | 61.1 | -1.12 | -2.39 | 0.0966 | -0.19 |
| MADSASESDTDGAGGNSSSSAAMQSSCSSTSGGGGGGGGGGGGGKSGGIVISPFRLEELTNRLASLQQENKVLKIELETYKLKCKALQEENRDLRKASVTIQARAEQEEEFISNTLFKKIQALQKEKETLAVNYEKEEEFLTNELSRKLMQLQHEKAELEQHLEQEQEFQVNKLMKKIKKLENDTISKQLTLEQLRREKIDLENTLEQEQEALVNRLWKRMDKLEAEKRILQEKLDQPVSAPPSPRDISMEIDSPENMMRHIRFLKNEVERLKKQLRAAQLQHSEKMAQYLEEERHMREENLRLQRKLQREMERREALCRQLSESESSLEMDDERYFNEMSAQGLRPRTVSSPIPYTPSPSSSRPISPGLSYASHTVGFTPPTSLTRAGMSYYNSPGLHVQHMGTSHGITRPSPRRSNSPDKFKRPTPPPSPNTQTPVQPPPPPPPPPMQPTVPSAATSQPTPSQHSAHPSSQP [CCDC6] | 53.5 | 53.6 | -2.05 | 0.137 | 0.826 | -0.174 |
| MADSGLLLKRGSCRSTWLRVRKARPQLILSRRPRRRLGSLRWCGRRRLRWRLLQAQASGVDWREGARQVSRAAAARRPNTATPSPIPSPTPASEPESEPELESASSCHRPLLIPPVRPVGPGRALLLLPVEQGFTFSGICRVTCLYGQVQVFGFTISQGQPAQDIFSVYTHSCLSIHALHYSQPEKSKKELKREARNLLKSHLNLDDRRWSMQNFSPQCSIVLLEHLKTATVNFITSYPGSSYIFVQESPTPQIKPEYLALRSVGIRREKKRKGLQLTESTLSALEELVNVSCEEVDGCPVILVCGSQDVGKSTFNRYLINHLLNSLPCVDYLECDLGQTEFTPPGCISLLNITEPVLGPPFTHLRTPQKMVYYGKPSCKNNYENYIDIVKYVFSAYKRESPLIVNTMGWVSDQGLLLLIDLIRLLSPSHVVQFRSDHSKYMPDLTPQYVDDMDGLYTKSKTKMRNRRFRLAAFADALEFADEEKESPVEFTGHKLIGVYTDFAFRITPRNRESHNKILRDLSILSYLSQLQPPMPKPLSPLHSLTPYQVPFNAVALRITHSDVAPTHILYAVNASWVGLCKIQDDVRGYTNGPILLAQTPICDCLGFGICRGIDMEKRLYHILTPVPPEELRTVNCLLVGAIAIPHCVLKCQRGIEGTVPYVTTDYNFKLPGASEKIGAREPEEAHKEKPYRRPKFCRKMK [NOL9] |  | 51.3 | 1.99 | 1.53 | -1.82 | 0.92 |
| MADSKEGVLPLTAASTAPISFGFTRTSARRRLADSGDGAGPSPEEKDFLKTVEGRELQSVKPQEAPKELVIPLIQNGHRRQPPARPPGPSTDTGALADGVVSQAVKELIAESKKSLEERENAGVDPTLAIPMIQKGCTPSGEGADSEPRAETVPEEANYEAVPVEAYGLAMLRGMGWKPGEGIGRTFNQVVKPRVNSLRPKGLGLGANLTEAQALTPTGPSRMPRPDEEQEKDKEDQPQGLVPGGAVVVLSGPHRGLYGKVEGLDPDNVRAMVRLAVGSRVVTVSEYYLRPVSQQEFDKNTLDLRQQNGTASSRKTLWNQELYIQQDNSERKRKHLPDRQDGPAAKSEKAAPRSQHWLHRDLRVRFVDNMYKGGQYYNTKMIIEDVLSPDTCVCRTDEGRVLEGLREDMLETLVPKAEGDRVMVVLGPQTGRVGHLLSRDRARSRALVQLPRENQVVELHYDAICQYMGPSDTDDD [GPKOW] | 48.8 | 49.8 | 0.906 | 2.23 | 0.393 | -0.0336 |
